From publication doi:10.1101/537159 (bioRxiv, 2019)

Tests used:
[1] = molecular target: D382Y human β-cardiac myosin 2-hep HMM (human, UniProt P12883 1-855; P08590 1-195; P10916 1-166, D382Y); test: MST
[2] = molecular target: R719W human β-cardiac myosin 2-hep HMM (human, UniProt P12883 1-855; P08590 1-195; P10916 1-166, R719W); test: MST
Chain of R719W human β-cardiac myosin 2-hep HMM (P12883 1-855 R719W, chain 1 of 3): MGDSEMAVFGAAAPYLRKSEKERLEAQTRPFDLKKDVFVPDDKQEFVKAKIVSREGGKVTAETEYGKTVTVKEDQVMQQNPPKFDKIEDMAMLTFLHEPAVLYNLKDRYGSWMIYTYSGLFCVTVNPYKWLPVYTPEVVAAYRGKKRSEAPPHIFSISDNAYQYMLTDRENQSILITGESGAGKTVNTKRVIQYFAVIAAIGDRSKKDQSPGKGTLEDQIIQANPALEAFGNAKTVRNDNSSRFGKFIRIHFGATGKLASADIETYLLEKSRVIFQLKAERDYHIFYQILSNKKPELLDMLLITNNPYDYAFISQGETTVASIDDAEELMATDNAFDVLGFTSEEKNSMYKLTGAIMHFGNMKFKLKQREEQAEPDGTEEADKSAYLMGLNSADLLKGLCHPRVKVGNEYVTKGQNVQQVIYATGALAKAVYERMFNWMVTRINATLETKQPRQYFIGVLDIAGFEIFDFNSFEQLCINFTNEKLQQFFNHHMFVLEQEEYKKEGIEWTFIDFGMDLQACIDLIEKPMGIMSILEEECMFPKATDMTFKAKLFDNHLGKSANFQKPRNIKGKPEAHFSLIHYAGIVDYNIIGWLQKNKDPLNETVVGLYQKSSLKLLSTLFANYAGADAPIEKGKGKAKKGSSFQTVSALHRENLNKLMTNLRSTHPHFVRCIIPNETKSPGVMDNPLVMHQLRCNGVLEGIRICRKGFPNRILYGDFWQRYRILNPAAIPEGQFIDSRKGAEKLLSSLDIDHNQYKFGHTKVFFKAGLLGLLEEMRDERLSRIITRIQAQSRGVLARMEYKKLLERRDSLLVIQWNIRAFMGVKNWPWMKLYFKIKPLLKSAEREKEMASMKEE
Chain of R719W human β-cardiac myosin 2-hep HMM (P08590 whole entry, chain 2 of 3): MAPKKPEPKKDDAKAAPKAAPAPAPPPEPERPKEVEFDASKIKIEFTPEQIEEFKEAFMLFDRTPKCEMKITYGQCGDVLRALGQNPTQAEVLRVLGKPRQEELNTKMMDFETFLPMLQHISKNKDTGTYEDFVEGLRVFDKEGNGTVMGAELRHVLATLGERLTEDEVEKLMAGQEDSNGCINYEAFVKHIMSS
Chain of R719W human β-cardiac myosin 2-hep HMM (P10916 whole entry, chain 3 of 3): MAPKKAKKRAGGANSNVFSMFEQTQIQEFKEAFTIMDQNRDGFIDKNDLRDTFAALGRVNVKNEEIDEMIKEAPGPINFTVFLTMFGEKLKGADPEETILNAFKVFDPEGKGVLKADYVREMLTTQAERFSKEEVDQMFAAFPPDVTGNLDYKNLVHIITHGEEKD

Chain of D382Y human β-cardiac myosin 2-hep HMM (P12883 1-855 D382Y, chain 1 of 3): as the sequence (P12883 1-855 R719W, chain 1 of 3) above, with D382Y, W719R counted along it
Chain of D382Y human β-cardiac myosin 2-hep HMM (P08590 whole entry, chain 2 of 3): as the sequence (P08590 whole entry, chain 2 of 3) above
Chain of D382Y human β-cardiac myosin 2-hep HMM (P10916 whole entry, chain 3 of 3): as the sequence (P10916 whole entry, chain 3 of 3) above

fold change of affinity against WT 2-hep HMM [1]: < 2 fold
fold change of affinity against WT 2-hep HMM [2]: < 2 fold
B1: proximal S2 (amino acids 839-968) (domain or fragment, human, UniProt P12883 839-968, looked up)
chain: LLKSAEREKEMASMKEEFTRLKEALEKSEARRKELEEKMVSLLQEKNDLQLQVQAEQDNLADAEERCDQLIKNKIQLEAKVKEMNERLEDEEEMNAELTAKKRKLEDECSELKRDIDDLELTLAKVEKEK
